# Data taken from paper PMC3173227 (The Journal of Biological Chemistry, 2011).
# B1: human Ube2T (enzyme, UniProt Q9NPD8 1-197, looked up)
# chain: MQRASRLKRELHMLATEPPPGITCWQDKDQMDDLRAQILGGANTPYEKGVFKLEVIIPERYPFEPPQIRFLTPIYHPNIDSAGRICLDVLKLPPKGAWRPSLNIATVLTSIQLLMSEPNPDDPLMADISSEFKYNKPAFLKNARQWTEKHARQKQKADEEEMLDNLPEAGDSRVHNSTQKRKASQLVGIEKKFHPDV
# B2: human FANCL RING domain (residues 289-375) (domain or fragment, UniProt Q9NW38 289-375, looked up)
# chain: EIDFPARAILEKSDFTMDCGICYAYQLDGTIPDQVCDNSQCGQPFHQICLYEWLRGLLTSRQSFNIIFGECPYCSKPITLKMSGRKH
# Tests used:
# [1] = molecular target: human FANCL RING domain (residues 289-375) (human) (UniProt Q9NW38); experiment: ITC
# [2] = molecular target: B2; experiment: SEC
# human Ube2T = molecular target: B1; experiment: ITC
molecule,measurement,setting,value
Ube2T-F63A (from UniProt Q9NPD8 1-197) (enzyme),Kd,[1],5000 nM
B1,stoichiometry N,[2],1
B2,Kd,human Ube2T,454 nM
